Kd data for two molecules are collected here from article PMC11931385, “Structural and functional analysis of cancer-associated missense variants in the retinoblastoma protein pocket domain” (The Journal of Biological Chemistry, 2025).

No end group written: not given here. TMR = tetramethyl rhodamine dye

Assay in all cases: fluorescence polarisation; 25 °C; unlabeled Rb^P titrated against 1.5 nM TMR-E2F1^TD or 7.5 nM TMR-E7^LxCxE; 25 mM Tris pH 8.0, 200 mM NaCl, 1 mM DTT, 0.1% Tween-20; 2 min incubation; quadratic fit; apparent Kd for the variants, Kd for WT
Holding throughout (details): both partners purified
(In general: Fluorescence polarisation rises when a labelled molecule tumbles more slowly, as on binding a larger partner.)

The target in assay [1] is T1, Rb^P H555Y (human, UniProt P06400 380-788, H555Y).
T1 construct: also called variant 29
T1 sequence (looked up): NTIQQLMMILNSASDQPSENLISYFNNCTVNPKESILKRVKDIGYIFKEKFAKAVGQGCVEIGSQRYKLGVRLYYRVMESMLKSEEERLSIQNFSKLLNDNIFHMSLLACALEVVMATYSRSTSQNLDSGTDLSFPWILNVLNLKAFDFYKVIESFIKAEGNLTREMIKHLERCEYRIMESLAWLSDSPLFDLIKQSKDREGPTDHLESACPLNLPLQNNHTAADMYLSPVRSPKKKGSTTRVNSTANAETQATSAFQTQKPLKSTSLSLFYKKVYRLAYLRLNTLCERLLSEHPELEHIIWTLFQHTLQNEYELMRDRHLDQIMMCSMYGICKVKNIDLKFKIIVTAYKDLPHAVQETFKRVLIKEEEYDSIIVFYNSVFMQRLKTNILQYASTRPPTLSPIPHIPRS

Assay [2] deals with T2, Rb^P R621P (human, UniProt P06400 380-788, R621P).
T2 construct: also called variant 43
T2 sequence (looked up): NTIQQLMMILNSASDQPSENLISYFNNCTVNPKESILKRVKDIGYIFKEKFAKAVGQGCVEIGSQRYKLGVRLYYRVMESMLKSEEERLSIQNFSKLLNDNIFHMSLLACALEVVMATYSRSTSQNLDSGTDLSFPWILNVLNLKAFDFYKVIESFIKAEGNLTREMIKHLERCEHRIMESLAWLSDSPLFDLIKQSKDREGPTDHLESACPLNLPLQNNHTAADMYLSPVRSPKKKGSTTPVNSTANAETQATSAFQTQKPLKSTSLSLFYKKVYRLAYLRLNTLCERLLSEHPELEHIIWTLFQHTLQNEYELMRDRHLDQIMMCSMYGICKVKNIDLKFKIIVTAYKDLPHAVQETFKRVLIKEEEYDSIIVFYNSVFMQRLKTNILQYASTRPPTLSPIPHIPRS

Assay [3] addresses T3, Rb^P R621S (human, UniProt P06400 380-788, R621S).
T3 construct: also called variant 44
T3 sequence (looked up): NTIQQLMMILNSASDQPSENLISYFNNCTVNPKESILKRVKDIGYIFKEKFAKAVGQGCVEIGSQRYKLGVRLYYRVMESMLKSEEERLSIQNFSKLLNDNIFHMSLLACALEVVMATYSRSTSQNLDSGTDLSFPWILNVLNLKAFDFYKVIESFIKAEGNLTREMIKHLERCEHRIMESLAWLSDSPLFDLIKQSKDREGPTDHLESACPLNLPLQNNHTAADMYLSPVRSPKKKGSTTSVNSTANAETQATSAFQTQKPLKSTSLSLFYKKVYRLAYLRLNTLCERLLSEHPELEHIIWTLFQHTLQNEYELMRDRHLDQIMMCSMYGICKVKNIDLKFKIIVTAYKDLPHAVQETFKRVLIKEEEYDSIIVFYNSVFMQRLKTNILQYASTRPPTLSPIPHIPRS

For assay [4], the target named is T4, Rb^P E675Q (human, UniProt P06400 380-788, E675Q).
T4 construct: also called variant 56
T4 sequence (looked up): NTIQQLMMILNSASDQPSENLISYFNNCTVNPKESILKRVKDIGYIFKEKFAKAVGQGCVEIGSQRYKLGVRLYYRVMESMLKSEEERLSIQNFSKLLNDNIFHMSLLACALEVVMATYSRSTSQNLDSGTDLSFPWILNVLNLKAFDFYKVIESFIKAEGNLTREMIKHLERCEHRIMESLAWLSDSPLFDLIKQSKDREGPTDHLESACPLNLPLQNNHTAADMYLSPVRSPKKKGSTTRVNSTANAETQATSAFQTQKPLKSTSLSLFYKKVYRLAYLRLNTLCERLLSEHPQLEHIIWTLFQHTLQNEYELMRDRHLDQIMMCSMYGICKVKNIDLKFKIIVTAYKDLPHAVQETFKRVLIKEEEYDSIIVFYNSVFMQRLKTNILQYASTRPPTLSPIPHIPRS

Assay [5] addresses T5, Rb^P R451C (human, UniProt P06400 380-788, R451C).
T5 construct: also called variant 5
T5 sequence (looked up): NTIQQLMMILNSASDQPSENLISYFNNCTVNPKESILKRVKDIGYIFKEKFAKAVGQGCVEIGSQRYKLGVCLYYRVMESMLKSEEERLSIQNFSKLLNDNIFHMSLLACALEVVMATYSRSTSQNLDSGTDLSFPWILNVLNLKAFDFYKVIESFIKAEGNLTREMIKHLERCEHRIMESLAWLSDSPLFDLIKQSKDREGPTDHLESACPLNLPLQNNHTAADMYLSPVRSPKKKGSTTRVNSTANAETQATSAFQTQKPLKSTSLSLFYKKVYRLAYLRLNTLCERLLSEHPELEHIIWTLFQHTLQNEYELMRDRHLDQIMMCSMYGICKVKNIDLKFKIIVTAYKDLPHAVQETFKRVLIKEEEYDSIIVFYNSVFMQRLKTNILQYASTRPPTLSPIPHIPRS

B1: TMR-E2F1^TD, peptide of the E2F1 transactivation domain (peptide)
peptide: {TMR}-GEGIRDLFDCDFGDLTPLD
notes: also called E2F^TD; source: synthetic peptide, bought: GenScript
Regarding B1, the Kd in assay [1] came out at 158 nM; in assay [2] it was 40 nM; in assay [3] it was 21 nM; in assay [4], 35 nM; in assay [5], 33 nM.

B2: TMR-E7^LxCxE, LxCxE peptide of the E7 oncoprotein from HPV (peptide)
peptide: DLYCYEQLN
modifications: also: TMR label, position not given here
notes: source: synthetic peptide, bought: GenScript
Regarding B2, the Kd is 8 nM in assay [1]; 12 nM in assay [2]; 6 nM in assay [3]; 20 nM in assay [4]; 7 nM in assay [5].
